Experimental data as given in patent publication US20180155451A1 (published 2018).

B1: GpH7-B3 variant L328_14T/GpL16-k0 (antibody, human IgG1, kappa)
heavy: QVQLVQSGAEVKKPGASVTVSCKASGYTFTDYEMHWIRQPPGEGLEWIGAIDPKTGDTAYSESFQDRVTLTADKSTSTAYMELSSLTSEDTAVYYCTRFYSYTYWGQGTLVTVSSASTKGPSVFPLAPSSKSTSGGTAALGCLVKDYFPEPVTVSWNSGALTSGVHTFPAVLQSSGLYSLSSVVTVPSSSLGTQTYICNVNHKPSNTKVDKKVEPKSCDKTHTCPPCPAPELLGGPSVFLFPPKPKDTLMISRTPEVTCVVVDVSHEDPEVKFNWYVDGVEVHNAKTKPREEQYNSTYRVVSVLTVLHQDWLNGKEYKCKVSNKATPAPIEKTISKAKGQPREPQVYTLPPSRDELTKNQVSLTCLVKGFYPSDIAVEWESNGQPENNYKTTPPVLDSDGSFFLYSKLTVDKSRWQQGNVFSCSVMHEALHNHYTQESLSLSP
light: DIVMTQSPLSLPVTPGEPASISCQASESLVHSNRNTYLHWYLQKPGQSPQLLIYKVSNRFSGVPDRFSGSGSGTDFTLKISRVEAEDVGVYYCSQNTHVPPTFGQGTKVEIERTVAAPSVFIFPPSDEQLKSGTASVVCLLNNFYPREAKVQWKVDNALQSGNSQESVTEQDSKDSTYSLSSTLTLSKADYEKHKVYACEVTHQGLSSPVTKSFNRGEC
notes: also called Ho Ab L328_14T
B2: GpH7-A5/GpH7-B3 variant I332_02A/GpL16-k0 (antibody, human IgG1, kappa)
heavy 1: not shown
heavy 2: not shown
light: B1 light
notes: also called He Ab I332_02A
B3: GpH7-A5/GpH7-B3 variant K326_10E/GpL16-k0 (antibody, human IgG1, kappa)
heavy 1: not shown
heavy 2: not shown
light: B1 light
notes: also called He Ab K326_10E
B4: GpH7-A5/GpH7-B3 variant G236_07I/GpL16-k0 (antibody, human IgG1, kappa)
heavy 1: not shown
heavy 2: not shown
light: B1 light
notes: also called He Ab G236_07I
B5: GpH7-A5/GpH7-B3 variant K334_14T/GpL16-k0 (antibody, human IgG1, kappa)
heavy 1: not shown
heavy 2: not shown
light: B1 light
notes: also called He Ab K334_14T
B6: GpH7-B3 variant S324_06M/GpL16-k0 (antibody, human IgG1, kappa)
heavy: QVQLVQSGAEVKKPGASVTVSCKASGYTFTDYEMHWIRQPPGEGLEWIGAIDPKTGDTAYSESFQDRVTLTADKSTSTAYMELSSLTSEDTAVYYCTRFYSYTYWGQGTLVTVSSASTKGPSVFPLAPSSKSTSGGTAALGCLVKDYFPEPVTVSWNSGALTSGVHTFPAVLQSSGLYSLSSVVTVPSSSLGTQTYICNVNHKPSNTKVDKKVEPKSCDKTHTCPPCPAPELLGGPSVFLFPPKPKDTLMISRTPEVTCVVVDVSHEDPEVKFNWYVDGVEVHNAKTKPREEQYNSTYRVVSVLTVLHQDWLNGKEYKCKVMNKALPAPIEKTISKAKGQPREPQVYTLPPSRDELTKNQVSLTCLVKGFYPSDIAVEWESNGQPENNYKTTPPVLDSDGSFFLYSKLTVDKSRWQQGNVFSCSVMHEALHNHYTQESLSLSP
light: B1 light
notes: also called Ho Ab S324_06M
B7: GpH7-A5/GpH7-B3 variant H268_13S/GpL16-k0 (antibody, human IgG1, kappa)
heavy 1: not shown
heavy 2: not shown
light: B1 light
notes: also called He Ab H268_13S
B8: GpH7-A5/GpH7-B3 variant G236_10E/GpL16-k0 (antibody, human IgG1, kappa)
heavy 1: not shown
heavy 2: not shown
light: B1 light
notes: also called He Ab G236_10E
B9: GpH7-A5/GpH7-B3 variant H268_18N/GpL16-k0 (antibody, human IgG1, kappa)
heavy 1: not shown
heavy 2: not shown
light: B1 light
notes: also called He Ab H268_18N
B10: GpH7-A5/GpH7-B3 variant I332_09D/GpL16-k0 (antibody, human IgG1, kappa)
heavy 1: not shown
heavy 2: not shown
light: B1 light
notes: also called He Ab I332_09D
B11: GpH7-B3 variant Q295_07I/GpL16-k0 (antibody, human IgG1, kappa)
heavy: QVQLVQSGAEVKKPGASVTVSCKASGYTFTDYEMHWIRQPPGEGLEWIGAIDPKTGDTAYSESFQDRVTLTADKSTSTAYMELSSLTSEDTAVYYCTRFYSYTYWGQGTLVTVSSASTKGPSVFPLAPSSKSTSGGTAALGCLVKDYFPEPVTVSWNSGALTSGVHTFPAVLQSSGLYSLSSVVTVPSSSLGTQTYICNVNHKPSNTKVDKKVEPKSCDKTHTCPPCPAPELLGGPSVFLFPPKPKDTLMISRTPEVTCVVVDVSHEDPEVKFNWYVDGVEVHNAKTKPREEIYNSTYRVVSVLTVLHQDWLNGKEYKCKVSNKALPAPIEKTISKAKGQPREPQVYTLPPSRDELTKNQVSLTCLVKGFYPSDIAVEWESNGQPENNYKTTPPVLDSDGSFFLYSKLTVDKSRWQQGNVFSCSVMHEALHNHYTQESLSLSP
light: B1 light
notes: also called Ho Ab Q295_07I
B12: GpH7-B3 variant S239_09D/GpL16-k0 (antibody, human IgG1, kappa)
heavy: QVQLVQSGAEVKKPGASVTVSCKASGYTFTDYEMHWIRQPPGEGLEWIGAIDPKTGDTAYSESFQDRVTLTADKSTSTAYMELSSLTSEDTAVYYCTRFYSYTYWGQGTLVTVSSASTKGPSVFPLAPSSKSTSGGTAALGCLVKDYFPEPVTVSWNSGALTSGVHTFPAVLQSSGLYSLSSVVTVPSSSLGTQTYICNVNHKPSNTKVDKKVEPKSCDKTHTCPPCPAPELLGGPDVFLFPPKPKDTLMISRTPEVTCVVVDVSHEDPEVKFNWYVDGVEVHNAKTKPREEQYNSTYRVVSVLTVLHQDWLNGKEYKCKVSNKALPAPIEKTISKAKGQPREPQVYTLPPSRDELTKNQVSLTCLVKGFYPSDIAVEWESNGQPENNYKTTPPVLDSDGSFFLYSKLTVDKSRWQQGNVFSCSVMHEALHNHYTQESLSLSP
light: B1 light
notes: also called Ho Ab S239_09D
B13: GpH7-B3 variant T335_07I/GpL16-k0 (antibody, human IgG1, kappa)
heavy: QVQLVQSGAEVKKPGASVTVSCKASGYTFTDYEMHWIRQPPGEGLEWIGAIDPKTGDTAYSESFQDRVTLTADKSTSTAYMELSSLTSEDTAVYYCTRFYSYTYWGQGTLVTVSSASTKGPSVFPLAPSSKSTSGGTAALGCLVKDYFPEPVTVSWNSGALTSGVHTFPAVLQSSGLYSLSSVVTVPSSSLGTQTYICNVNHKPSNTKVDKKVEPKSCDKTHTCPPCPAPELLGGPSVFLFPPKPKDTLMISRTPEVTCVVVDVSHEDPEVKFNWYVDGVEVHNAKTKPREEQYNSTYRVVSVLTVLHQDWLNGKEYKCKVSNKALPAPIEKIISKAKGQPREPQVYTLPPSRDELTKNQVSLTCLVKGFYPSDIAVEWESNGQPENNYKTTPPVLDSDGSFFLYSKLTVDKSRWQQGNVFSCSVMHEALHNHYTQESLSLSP
light: B1 light
notes: also called Ho Ab T335_07I
B14: GpH7-A5/GpH7-B3 variant K326_09D/GpL16-k0 (antibody, human IgG1, kappa)
heavy 1: not shown
heavy 2: not shown
light: B1 light
notes: also called He Ab K326_09D
B15: GpH7-A5/GpH7-B3 variant K326_06M/GpL16-k0 (antibody, human IgG1, kappa)
heavy 1: not shown
heavy 2: not shown
light: B1 light
notes: also called He Ab K326_06M
B16: GpH7-A5/GpH7-B3 variant I332_15Y/GpL16-k0 (antibody, human IgG1, kappa)
heavy 1: not shown
heavy 2: not shown
light: B1 light
notes: also called He Ab I332_15Y
B17: GpH7-A5/GpH7-B3 variant L328_06M/GpL16-k0 (antibody, human IgG1, kappa)
heavy 1: not shown
heavy 2: not shown
light: B1 light
notes: also called He Ab L328_06M
B18: GpH7-A5/GpH7-B3 variant K326_14T/GpL16-k0 (antibody, human IgG1, kappa)
heavy 1: not shown
heavy 2: not shown
light: B1 light
notes: also called He Ab K326_14T
B19: GpH7-A5/GpH7-B3 variant G236_03V/GpL16-k0 (antibody, human IgG1, kappa)
heavy 1: not shown
heavy 2: not shown
light: B1 light
notes: also called He Ab G236_03V
B20: GpH7-A5/GpH7-B3 variant I332_19Q/GpL16-k0 (antibody, human IgG1, kappa)
heavy 1: not shown
heavy 2: not shown
light: B1 light
notes: also called He Ab I332_19Q
B21: GpH7-A5/GpH7-B3 variant A330_12R/GpL16-k0 (antibody, human IgG1, kappa)
heavy 1: not shown
heavy 2: not shown
light: B1 light
notes: also called He Ab A330_12R
B22: GpH7-A5/GpH7-B3 variant K326_19Q/GpL16-k0 (antibody, human IgG1, kappa)
heavy 1: not shown
heavy 2: not shown
light: B1 light
notes: also called He Ab K326_19Q
B23: GpH7-A5/GpH7-B3 variant L235_20W/GpL16-k0 (antibody, human IgG1, kappa)
heavy 1: not shown
heavy 2: not shown
light: B1 light
notes: also called He Ab L235_20W
B24: GpH7-A5/GpH7-B3 variant K334_16H/GpL16-k0 (antibody, human IgG1, kappa)
heavy 1: not shown
heavy 2: not shown
light: B1 light
notes: also called He Ab K334_16H
B25: GpH7-B3 variant P271_01G/GpL16-k0 (antibody, human IgG1, kappa)
heavy: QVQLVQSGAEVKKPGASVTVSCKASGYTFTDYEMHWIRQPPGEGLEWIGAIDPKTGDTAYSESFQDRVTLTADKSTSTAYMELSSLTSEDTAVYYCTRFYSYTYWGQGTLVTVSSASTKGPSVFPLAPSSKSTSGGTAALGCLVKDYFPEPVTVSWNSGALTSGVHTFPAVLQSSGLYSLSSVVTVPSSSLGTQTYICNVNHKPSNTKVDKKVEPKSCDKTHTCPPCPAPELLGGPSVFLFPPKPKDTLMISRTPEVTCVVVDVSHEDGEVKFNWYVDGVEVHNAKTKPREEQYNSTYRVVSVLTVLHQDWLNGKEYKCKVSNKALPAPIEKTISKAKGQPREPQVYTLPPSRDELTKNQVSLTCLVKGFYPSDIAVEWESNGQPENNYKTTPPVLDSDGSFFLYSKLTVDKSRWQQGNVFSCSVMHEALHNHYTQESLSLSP
light: B1 light
notes: also called Ho Ab P271_01G
B26: GpH7-A5/GpH7-B3 variant K334_15Y/GpL16-k0 (antibody, human IgG1, kappa)
heavy 1: not shown
heavy 2: not shown
light: B1 light
notes: also called He Ab K334_15Y
B27: GpH7-B3 variant S337_16H/GpL16-k0 (antibody, human IgG1, kappa)
heavy: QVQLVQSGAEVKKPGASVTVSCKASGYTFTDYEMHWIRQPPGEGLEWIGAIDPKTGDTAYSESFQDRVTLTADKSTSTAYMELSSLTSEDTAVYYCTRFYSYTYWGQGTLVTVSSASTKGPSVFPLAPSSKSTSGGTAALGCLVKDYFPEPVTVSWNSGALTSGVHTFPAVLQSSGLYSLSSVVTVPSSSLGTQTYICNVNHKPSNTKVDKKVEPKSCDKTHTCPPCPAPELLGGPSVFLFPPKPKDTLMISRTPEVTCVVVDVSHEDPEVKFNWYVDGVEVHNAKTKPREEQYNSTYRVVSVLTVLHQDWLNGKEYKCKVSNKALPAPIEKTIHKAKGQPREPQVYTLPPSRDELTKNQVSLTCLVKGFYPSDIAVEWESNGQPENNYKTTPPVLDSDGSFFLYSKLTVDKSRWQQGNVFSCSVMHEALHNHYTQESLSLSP
light: B1 light
notes: also called Ho Ab S337_16H
B28: GpH7-B3 variant Q295_05P/GpL16-k0 (antibody, human IgG1, kappa)
heavy: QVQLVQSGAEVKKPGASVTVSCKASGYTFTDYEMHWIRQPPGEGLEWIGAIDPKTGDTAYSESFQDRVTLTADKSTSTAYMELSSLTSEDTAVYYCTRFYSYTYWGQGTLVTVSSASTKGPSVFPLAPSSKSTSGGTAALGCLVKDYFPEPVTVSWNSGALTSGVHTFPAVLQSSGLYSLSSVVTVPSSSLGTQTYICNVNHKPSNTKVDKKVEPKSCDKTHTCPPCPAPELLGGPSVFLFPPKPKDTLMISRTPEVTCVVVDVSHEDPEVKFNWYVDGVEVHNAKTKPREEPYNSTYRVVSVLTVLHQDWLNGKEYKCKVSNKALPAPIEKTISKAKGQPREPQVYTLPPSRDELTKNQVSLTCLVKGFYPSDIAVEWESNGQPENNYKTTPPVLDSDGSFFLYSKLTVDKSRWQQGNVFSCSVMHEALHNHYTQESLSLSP
light: B1 light
notes: also called Ho Ab Q295_05P
B29: GpH7-A5/GpH7-B3 variant K334_08L/GpL16-k0 (antibody, human IgG1, kappa)
heavy 1: not shown
heavy 2: not shown
light: B1 light
notes: also called He Ab K334_08L

target: T1, FcγRIIa H (human, UniProt P12318 34-217); test: SPR Biacore, relative binding
T1 construct: extracellular domain; also called FcgRIIa H type; 2aH; not shown: His tag at the C terminus
T1 sequence (looked up): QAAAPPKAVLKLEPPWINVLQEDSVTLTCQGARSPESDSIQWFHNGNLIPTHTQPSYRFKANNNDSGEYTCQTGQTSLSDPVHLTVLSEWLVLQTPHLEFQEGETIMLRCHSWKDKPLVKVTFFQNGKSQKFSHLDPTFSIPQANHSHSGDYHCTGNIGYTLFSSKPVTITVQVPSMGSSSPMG

| Ho/Con_2aH | He/Con_2aH | Binder |
| --- | --- | --- |
| 110 % of GpH7-B3/GpL16-k0 (=100) | – | B1 |
| – | 111 % of GpH7-A5/GpH7-B3/GpL16-k0 (=100) | B2 |
| – | 102 % of GpH7-A5/GpH7-B3/GpL16-k0 (=100) | B3 |
| – | 115 % of GpH7-A5/GpH7-B3/GpL16-k0 (=100) | B4 |
| – | 103 % of GpH7-A5/GpH7-B3/GpL16-k0 (=100) | B5 |
| 123 % of GpH7-B3/GpL16-k0 (=100) | – | B6 |
| – | 112 % of GpH7-A5/GpH7-B3/GpL16-k0 (=100) | B7 |
| – | 111 % of GpH7-A5/GpH7-B3/GpL16-k0 (=100) | B8 |
| – | 112 % of GpH7-A5/GpH7-B3/GpL16-k0 (=100) | B9 |
| – | 118 % of GpH7-A5/GpH7-B3/GpL16-k0 (=100) | B10 |
| 108 % of GpH7-B3/GpL16-k0 (=100) | – | B11 |
| 112 % of GpH7-B3/GpL16-k0 (=100) | – | B12 |
| 105 % of GpH7-B3/GpL16-k0 (=100) | – | B13 |
| – | 110 % of GpH7-A5/GpH7-B3/GpL16-k0 (=100) | B14 |
| – | 103 % of GpH7-A5/GpH7-B3/GpL16-k0 (=100) | B15 |
| – | 115 % of GpH7-A5/GpH7-B3/GpL16-k0 (=100) | B16 |
| – | 104 % of GpH7-A5/GpH7-B3/GpL16-k0 (=100) | B17 |
| – | 114 % of GpH7-A5/GpH7-B3/GpL16-k0 (=100) | B18 |
| – | 119 % of GpH7-A5/GpH7-B3/GpL16-k0 (=100) | B19 |
| – | 108 % of GpH7-A5/GpH7-B3/GpL16-k0 (=100) | B20 |
| – | 108 % of GpH7-A5/GpH7-B3/GpL16-k0 (=100) | B21 |
| – | 101 % of GpH7-A5/GpH7-B3/GpL16-k0 (=100) | B22 |
| – | 118 % of GpH7-A5/GpH7-B3/GpL16-k0 (=100) | B23 |
| – | 104 % of GpH7-A5/GpH7-B3/GpL16-k0 (=100) | B24 |
| 110 % of GpH7-B3/GpL16-k0 (=100) | – | B25 |
| – | 106 % of GpH7-A5/GpH7-B3/GpL16-k0 (=100) | B26 |
| 102 % of GpH7-B3/GpL16-k0 (=100) | – | B27 |
| 106 % of GpH7-B3/GpL16-k0 (=100) | – | B28 |
| – | 104 % of GpH7-A5/GpH7-B3/GpL16-k0 (=100) | B29 |
